In US9119806B2, “Culturing circular ssDNA viruses for the production of vaccines” (priority 2007, dated 2015):

Experiments:
Format in all cases: cell-based, Porcine circovirus 2
PCV2 in PK-15 cells = test: Progeny PCV2 virus production in PK-15 cells with IFN-gamma
Protocol: The influence of IFN-gamma on the production of progeny virus in PCV2-infected cells was determined by inoculating PK-15 cells with the standard PCV2-stock. After the inoculation, culture medium was added supplemented with IFN-gamma (500 U/ml). At 0, 12, 24, 36, 48 and 72 hours post inoculation (hpi) the supernatant was collected. Subsequently the culture was washed once with 1 ml PBS. Both the supernatant and the washing fluid were centrifuged for 10 minutes at 15,000×g to pellet cells and debris. The centrifuged supernatant and washing fluids were combined and considered to contain the extracellular virus. Both pellets and cell cultures were freeze-thawed tree times and considered to contain the intracellular virus. Intra- and extracellular virus titres were determined by titration on PCV-negative PK-15 cells as described previously.

[1] = test system: PCV2 capsids on 3D4/31 cells; test: Attachment of PCV2 capsids (virion-like particles) on 3D4/31 cells; details: 4° C., 0-60 minutes
Protocol: The attachment of PCV2 capsids onto untreated 3D4/31 cells and 3D4/31 cells pre-treated with IFN-gamma was studied as described by Misinzo et al. (J Gen Virol. conditionally accepted for publication). Briefly, treated and untreated 3D4/31 cells were chilled on ice and washed before PCV2 capsids were added and allowed to attach for 0, 1, 5, 10, 15, 30 and 60 minutes at 4° C. Unbound PCV2 capsids were washed-off and cells were fixed with 3% (w/v) paraformaldehyde in phosphate-buffered saline with calcium and magnesium (PBS+) at room temperature for 10 minutes. In order to stain the PCV2 capsids, cells were incubated with biotin-conjugated anti-PCV2 swine polyclonal antibodies and streptavidin-FITC (Molecular Probes, Leiden, The Netherlands) for 1 hour at room temperature. The slides were mounted and analysed by acquisition of digital images of stained PCV2 capsids using a Leica TCS SP2 laser scanning spectral confocal system (Leica Microsystems GmbH, Heidelberg, Germany) linked to a Leica DM/IRB inverted microscope (Leica Microsystems GmbH, Wetzlar, Germany). Successive images from the apex to the base of a single cell were taken and merged. The number of PCV2 capsids attached per cell was counted for ten cells at each time point to establish their binding kinetics into 3D4/31 cells.

[2] = test system: PCV2 capsids in 3D4/31 cells; test: Entry (internalization) of PCV2 recombinant capsids in 3D4/31 cells; details: 3D4/31 cells treated with IFN-gamma
Protocol: To study the internalization of recombinant capsids on 3D4/31, cells were washed with RPMI-1640 at 37° C. and then incubated with capsids at 37° C. for 15 minutes followed by washing of unbound capsids. Cells were then fixed with a 3% solution of paraformaldehyde (rPBS) for 10 minutes at 30, 60 and 120 minutes since the addition of capsids into the cells, washed with PBS, and permeabilized in a 0.1% Triton X-100 solution in rPBS. Capsids were stained by incubating the calls with a biotin-conjugated anti-PCV2 swine polyclonal antibody followed by streptavidin-FITC (Molecular Probes, Eugene, Oreg.).

[3] = test system: PCV2 strain Stoon-1010 in PK-15 cells; test: Progeny PCV2 production in PK-15 cells with acidification inhibitors and/or IFN-gamma; details: IFN-gamma 500 U/ml pre-treatment
Protocol: For progeny virus production assays, 2×10^5 cells were seeded in every well of 24-well cell culture plates. Cells were pre-treated with or without 500 U/ml IFN-gamma at 6 hours post seeding. At 24 h post-seeding, cells were washed and inoculated with the prototype PCV2 strain Stoon-1010 at an m.o.i. of 0.3 for 1 hour at 37° C. The viral inoculum was washed-off and cells were further incubated in 1 ml of culture medium with or without 25 mM ammonium chloride, 125 μM chloroquine diphosphate and/or 6 μM monensin for 24 hours. Then, the culture medium with or without endosomal-lysosomal system acidification inhibitors was replaced with fresh culture medium without inhibitors. At 1, 24, 48 and 72 hours post-inoculation the supernatant was collected. Subsequently the culture was washed once with 1 ml PBS. Both the supernatant and the washing fluid were centrifuged for 10 minutes at 15,000×g to pellet cells and debris. The centrifuged supernatant and washing fluids were combined and considered to contain the extracellular virus. Both pellets and cell cultures were freeze-thawed three times and considered to contain the intracellular virus. Intra- and extracellular virus titres were determined by titration on PCV-negative PK-15 cells as described previously. Viral antigens were detected using an IPMA as described above and PCV2 titre was expressed as log10 TCID50 per 10^5 cells.

B1: IFN-gamma: Porcine interferon gamma purchased from R&D systems (protein, UniProt P17803 24-166, looked up)
Interferon gamma: QAPFFKEITILKDYFNASTSDVPNGGPLFLEILKNWKEESDKKIIQSQIVSFYFKFFEIFKDNQAIQRSMDVIKQDMFQRFLNGSSGKLNDFEKLIKIPVDNLQIQRKAISELIKVMNDLSPRSNLRKRKRSQTMFQGQRASK
total PCV2 production higher compared to non-treated cells (PCV2 in PK-15 cells; 500 U/ml after inoculation, 72 hpi): 1.3 log10 TCID50
extracellular and intracellular virus production (in words) (PCV2 in PK-15 cells; 500 U/ml, compared to non-treated control cells): increased
number of attached virion-like particles per cell and binding kinetics (in words) [1]: No differences were observed
number of internalized virions (in words) [2]: significant increase
PCV2 titres at 1 hpi ([3]; 1 hpi): 2.0 TCID50 per 10^5 cells
PCV2 titres at 24 hpi ([3]; 24 hpi): 2.1 TCID50 per 10^5 cells
PCV2 titres at 48 hpi ([3]; 48 hpi): 3.4 TCID50 per 10^5 cells
PCV2 titres at 72 hpi ([3]; 72 hpi): 3.9 TCID50 per 10^5 cells
